According to patent publication US8241627B2, “Modified polypeptides stabilized in a desired conformation and methods for producing same” (The Center for Blood Research, Inc., priority 2000, dated 2012):

What was measured:
ICAM-1 [1] = biological target: T1, ICAM-1 (Homo sapiens, UniProt P05362); test: Binding of LFA-1 or isolated I-domain transfectants to immobilized ICAM-1; type: cell-based; parameters: ICAM-1 was purified from human tonsil; from tissue; host or cells: human tonsil; conditions: for binding of 293T transient transfectants to immobilized ICAM-1 with activating mAb CBRLFA-1/2: CBRLFA-1/2 10 μg/ml; for binding of 293T transient transfectants to immobilized ICAM-1: no activating antibody
Method: Clones of the transfectants that expressed similar levels of cell surface LFA-1, as determined by flow cytometry using monoclonal antibody TS2/4 (FIG. 3B), were tested for their ability to bind to immobilized ICAM-1, as previously described (Lu, C and Springer, T A (1997) J Immunol 159:268-278).
Briefly, ICAM-1 was purified from human tonsil, and coated to 96-well plates as described previously (Lu, C and Springer T A, (1997) J Immunol 159:268-278). Cells were labeled with a florescence dye 2′,7′-bis-(carboxyethyl)-5(and-6)-carboxyfluorescein, acetoxymethyl ester (BCECF-AM), and resuspended to 1×10^6/ml in L15/FBS. 50 μl cell suspension was mixed in ICAM-1 coated wells with an equal volume of L15/FBS in the absence or presence of monoclonal antibody (CBRLFA-1/2, 10 μg/ml). Monoclonal antibodies were used at final concentration of 1:20 hybridoma supernatant, 1:200 ascites, or μg/ml purified IgG. For testing the effect of divalent cations, BCECF-AM-labeled cells were washed 2× with TS buffer, pH7.5 (20 mM Tris, pH 7.5, 150 mMNaCl) containing 5 mM EDTA, followed by 2 washes with TS buffer, pH7.5. Cells were then resuspended to 5×10^5/ml in the TS buffer, pH7.5 supplemented with 1 mM MgCl2/CaCl2, MgCl2, MnCl2 mM EDTA, and 100 μl cell suspension was added to ICAM-1 coated wells. After incubation at 37° C. for 30 minutes, unbound cells were washed off on a Microplate Autowasher (Bio-Tek Instruments, Winooski, Vt.). The fluorescence content of total input cells and the bound cells in each well was quantitated on a Fluorescent Concentration Analyzer (IDEXX, Westbrook, Me.). The bound cells were expressed as a percentage of total input cells per sample well.
For generating stable K562 transfectants that express the I-domain on the surface, 20 μg of SspI-linearized pcDNA3.1/Hygro(+) containing the sequences encoding the I domain and the PDGFR transmembrane domain was used to transfect K562 cells by electroporation as described above. Transfectants were selected for resistance to 100 μg/ml hygromycin B, and were further subcloned by cell sorting and limiting dilution; clones that expressed similar levels of surface wild-type and mutant I domain-PDGFR were selected for functional studies. Stable cell lines were maintained in RPMI medium 1640 supplemented with 10% FBS and 100 μg/ml hygromycin B. Cell surface expression of the isolated I-domains was determined by flow cytometry using antibody TS1/22 to the I-domain (FIG. 7). Two clones from each transfectant were selected and tested for binding to immobilized ICAM-1, and similar results were obtained with each of the two clones (FIG. 8A).
If the constitutive ligand binding activity of mutant K287C/K294C is due to the formation of a disulfide bond between the introduced C287 and C294, disruption of the disulfide bond with a reducing agent would abolish ligand binding ability of the mutant. Accordingly, the transfectants were treated with the reducing agent DTT (10 mM) in L15/FBS containing Mg^2+ and Ca^2+, and the ability of transfectants to bind to ICAM-1 was assessed.
Furthermore, the effect of divalent cations on ligand binding of the isolated I-domains expressed on the surface of K562 transfectants was tested. The binding reactions were performed in HEPES/NaCl/glucose (20 mM HEPES, pH 7.5, 140 mM NaCl, 2 mg/ml glucose) supplemented with 1 mM […], 1 mM Mg^2+, or 1 mM EDTA.
Target sequence in this assay (P05362 28-532): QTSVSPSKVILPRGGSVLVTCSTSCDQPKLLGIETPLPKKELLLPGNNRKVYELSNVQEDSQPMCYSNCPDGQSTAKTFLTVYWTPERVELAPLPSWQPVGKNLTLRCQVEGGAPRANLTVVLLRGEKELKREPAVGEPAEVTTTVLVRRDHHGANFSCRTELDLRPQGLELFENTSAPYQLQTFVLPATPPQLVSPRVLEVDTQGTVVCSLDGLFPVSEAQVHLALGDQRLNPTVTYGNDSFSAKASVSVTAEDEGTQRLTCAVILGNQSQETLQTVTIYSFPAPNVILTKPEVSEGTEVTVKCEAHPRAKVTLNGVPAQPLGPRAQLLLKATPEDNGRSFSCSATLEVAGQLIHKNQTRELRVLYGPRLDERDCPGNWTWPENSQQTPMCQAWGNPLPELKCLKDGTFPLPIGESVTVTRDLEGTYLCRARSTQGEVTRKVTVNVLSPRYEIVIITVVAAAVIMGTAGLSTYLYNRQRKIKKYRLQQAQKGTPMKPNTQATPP

ICAM-1 [2] = biological target: T1, ICAM-1; test: BIAcore binding of soluble αL I-domains to ICAM-1; conditions: for Kon, interaction of αL I-domains with ICAM-1: calculated by Koff/KD; for Koff, interaction of αL I-domains with ICAM-1: curve fitting of dissociation phase, 1:1 binding model
Method: Briefly, recombinant mutant αL I-domain stabilized in the open conformation (K287C/K294C), or recombinant wild-type αL I-domain from amino acid residue G128 to Y307, were cloned into pET11b (Novagen) and expressed in E. coli induced with 1 mM IPTG for 4 hours. The recombinant proteins were purified from inclusion bodies by solubilization of inclusion bodies in 6M guanidine HCl and were refolded by dilution in the presence of 0.1 mM Cu^2+/phenanthrolin to enhance formation of disulfide bonds. Protein was concentrated by ammonium sulfate precipitation, dialyzed, and purified over a monoQ ion-exchange column. […] The recombinant proteins were then purified by gel filtration and concentrated by Centriprep. For BIAcore™ analysis, recombinant ICAM-1, ICAM-2 and ICAM-3 Fc chimeras were immobilized on the BIAcore™ sensor chip by an amine-coupling method. Recombinant αL I-domains were flowed in, and BIAcore™ assays were performed with Tris-buffered saline supplemented with 1 mM MgCl2 or 2 mM EDTA, at a flow rate of 10 μl/minute at 25° C.
Target sequence in this assay (P05362 28-480 limits assumed): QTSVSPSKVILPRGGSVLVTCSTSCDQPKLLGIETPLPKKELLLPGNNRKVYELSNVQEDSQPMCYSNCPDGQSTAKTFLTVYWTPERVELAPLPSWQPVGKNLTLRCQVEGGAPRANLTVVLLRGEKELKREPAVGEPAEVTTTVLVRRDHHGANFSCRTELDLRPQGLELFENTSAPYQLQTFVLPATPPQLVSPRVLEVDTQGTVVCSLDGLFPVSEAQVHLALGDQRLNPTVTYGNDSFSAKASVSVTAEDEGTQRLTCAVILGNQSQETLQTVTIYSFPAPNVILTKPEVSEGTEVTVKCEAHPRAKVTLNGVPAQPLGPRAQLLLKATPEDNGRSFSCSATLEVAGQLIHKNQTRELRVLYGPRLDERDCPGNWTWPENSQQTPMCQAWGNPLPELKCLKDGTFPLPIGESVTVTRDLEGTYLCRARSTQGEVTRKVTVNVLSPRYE

Molecule | binding of 293T transient transfectants to immobilized ICAM-1 with activating mAb CBRLFA-1/2 (ICAM-1 [1]) | binding of 293T transient transfectants to immobilized ICAM-1 (ICAM-1 [1]) | Kon, interaction of αL I-domains with ICAM-1 (ICAM-1 [2]) [M⁻¹ s⁻¹] | Koff, interaction of αL I-domains with ICAM-1 (ICAM-1 [2]) [s⁻¹] | also measured
L289C/K294C: low affinity closed αL I-domain mutant, cysteines for L289 and K294 (protein) GNVDLVFLFDGSMSLQPDEFQKILDFMKDVMKKLSNTSYQFAAVQFSTSYKTEFDFSDYVKRKDPDALLKHVKHMLLLTNTFGAINYVATEVFREELGARPDATKVLIIITDGEATDSGNIDAAKDIIRYIIGIGKHFQTKESQETLHKFASKPASEFVKICDTFECLKDLFTELQKKIY | not able to activate binding | did not bind | 2110 | 2.84 | binding of K562 cells expressing isolated I-domains to immobilized ICAM-1 (ICAM-1 [1]; I-domain on cell surface via PDGFR transmembrane domain): did not bind; effect of Mn2+ or Mg2+ on ligand binding of isolated I-domains (ICAM-1 [1]; K562, 1 mM Mn2+ or Mg2+): did not activate ligand binding; binding of K562 stable transfectants to immobilized ICAM-1 with activating mAb CBRLFA-1/2 (ICAM-1 [1]; K562, CBRLFA-1/2 10 μg/ml): did not binding to ICAM-1; effect of Mn2+ and Mg2+ on binding of K562 transfectants to ICAM-1 (ICAM-1 [1]; K562, intact LFA-1, Mn2+ / Mg2+): did not increase binding; binding of K562 stable transfectants to immobilized ICAM-1 (ICAM-1 [1]; K562, no activating antibody): did not binding to ICAM-1; effect of DTT treatment on binding to ICAM-1 (ICAM-1 [1]; K562 transfectants, DTT 10 mM in L15/FBS): did not affect binding
K160C/F299C: intermediate-affinity open αL I-domain mutant, cysteines for K160 and F299 (protein) GNVDLVFLFDGSMSLQPDEFQKILDFMKDVMKCLSNTSYQFAAVQFSTSYKTEFDFSDYVKRKDPDALLKHVKHMLLLTNTFGAINYVATEVFREELGARPDATKVLIIITDGEATDSGNIDAAKDIIRYIIGIGKHFQTKESQETLHKFASKPASEFVKILDTFEKLKDLCTELQKKIY | – | – | 153000 | 0.67 | –
L161C/F299C: intermediate-affinity open αL I-domain mutant, cysteines for L161 and F299 (protein) GNVDLVFLFDGSMSLQPDEFQKILDFMKDVMKKCSNTSYQFAAVQFSTSYKTEFDFSDYVKRKDPDALLKHVKHMLLLTNTFGAINYVATEVFREELGARPDATKVLIIITDGEATDSGNIDAAKDIIRYIIGIGKHFQTKESQETLHKFASKPASEFVKILDTFEKLKDLCTELQKKIY | – | – | 136000 | 0.513 | –
E284C/E301C: high affinity open αL I-domain mutant, E284 and E301 replaced by cysteines (protein) GNVDLVFLFDGSMSLQPDEFQKILDFMKDVMKKLSNTSYQFAAVQFSTSYKTEFDFSDYVKRKDPDALLKHVKHMLLLTNTFGAINYVATEVFREELGARPDATKVLIIITDGEATDSGNIDAAKDIIRYIIGIGKHFQTKESQETLHKFASKPASCFVKILDTFEKLKDLFTCLQKKIY | – | – | 128000 | 0.0459 | affinity compared with high-affinity open αL I-domain K287C/K294C (times lower) (ICAM-1 [2]; ICAM-1, soluble I-domains): nearly comparable
L161C/T300C: intermediate-affinity open αL I-domain mutant, cysteines for L161 and T300 (protein) GNVDLVFLFDGSMSLQPDEFQKILDFMKDVMKKCSNTSYQFAAVQFSTSYKTEFDFSDYVKRKDPDALLKHVKHMLLLTNTFGAINYVATEVFREELGARPDATKVLIIITDGEATDSGNIDAAKDIIRYIIGIGKHFQTKESQETLHKFASKPASEFVKILDTFEKLKDLFCELQKKIY | – | – | 135000 | 0.65 | –
K287C: single cysteine substitution mutant of LFA-1 αL (protein, UniProt P20701 26-1170, looked up, variant K287C) Integrin alpha-L: YNLDVRGARSFSPPRAGRHFGYRVLQVGNGVIVGAPGEGNSTGSLYQCQSGTGHCLPVTLRGSNYTSKYLGMTLATDPTDGSILACDPGLSRTCDQNTYLSGLCYLFRQNLQGPMLQGRPGFQECIKGNVDLVFLFDGSMSLQPDEFQKILDFMKDVMKKLSNTSYQFAAVQFSTSYKTEFDFSDYVKRKDPDALLKHVKHMLLLTNTFGAINYVATEVFREELGARPDATKVLIIITDGEATDSGNIDAAKDIIRYIIGIGKHFQTKESQETLHKFASKPASEFVCILDTFEKLKDLFTELQKKIYVIEGTSKQDLTSFNMELSSSGISADLSRGHAVVGAVGAKDWAGGFLDLKADLQDDTFIGNEPLTPEVRAGYLGYTVTWLPSRQKTSLLASGAPRYQHMGRVLLFQEPQGGGHWSQVQTIHGTQIGSYFGGELCGVDVDQDGETELLLIGAPLFYGEQRGGRVFIYQRRQLGFEEVSELQGDPGYPLGRFGEAITALTDINGDGLVDVAVGAPLEEQGAVYIFNGRHGGLSPQPSQRIEGTQVLSGIQWFGRSIHGVKDLEGDGLADVAVGAESQMIVLSSRPVVDMVTLMSFSPAEIPVHEVECSYSTSNKMKEGVNITICFQIKSLIPQFQGRLVANLTYTLQLDGHRTRRRGLFPGGRHELRRNIAVTTSMSCTDFSFHFPVCVQDLISPINVSLNFSLWEEEGTPRDQRAQGKDIPPILRPSLHSETWEIPFEKNCGEDKKCEANLRVSFSPARSRALRLTAFASLSVELSLSNLEEDAYWVQLDLHFPPGLSFRKVEMLKPHSQIPVSCEELPEESRLLSRALSCNVSSPIFKAGHSVALQMMFNTLVNSSWGDSVELHANVTCNNEDSDLLEDNSATTIIPILYPINILIQDQEDSTLYVSFTPKGPKIHQVKHMYQVRIQPSIHDHNIPTLEAVVGVPQPPSEGPITHQWSVQMEPPVPCHYEDLERLPDAAEPCLPGALFRCPVVFRQEILVQVIGTLELVGEIEASSMFSLCSSLSISFNSSKHFHLYGSNASLAQVVMKVDVVYEKQMLYLYVLSGIGGLLLLLLIFIVLYKVGFFKRNLKEKMEAGRGVPNGIPAEDSEQLASGQEAGDPGCLKPLHEKDSESGGGKD | increased | reduced binding | – | – | –
